Measured values taken from the supplement of paper PMC10567573.

B1: ZBED3 (parent)
chain: QARLRDVSRREGALGWAPAAPPPL
B2: SMG5 (parent)
chain: TRKLSPGKKRCKDIKRLLVNFMYL
B3: PDZK1 (parent)
chain: RETASLKLLPHQPRIVEMKKGSNG

Variants of: B1
Experiment: protein stability index of a GFP-peptide fusion (GPS, HEK-293T) (PSI 1-6); higher = more stable
Details: c terminus: a fixed tail appended
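Note: lentivirally expressed fusions sorted by FACS into six bins by GFP to DsRed ratio, PSI derived from sequencing read proportions per bin multiplied by bin number.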

Variant | protein stability index
P18E | 3.56
P22H | 3.45
P22R | 3.31
P22F | 2.89
P22C | 2.29
P22D | 3.81
P22Q | 3.29
P22T | 3.11
P22A | 3.65
P22Y | 2.37
P22M | 3.16
P22E | 4.2
P22V | 2.46
P22K | 3.62
P22S | 3.2
P22W | 2.62
P22G | 3.34
P22I | 2.74
P22N | 3.26
P22L | 3.46
A20W | 1.96
P23K | 3.33
P23C | 3.19
P23F | 2.79
P23G | 3.73
P23L | 2.9
P23A | 3.38
P23E | 3.12

Variant | protein stability index
P23W | 2.08
P23V | 2.79
P23I | 2.36
P23R | 3.33
P23Q | 3.5
P23D | 3.81
P23M | 2.86
P23S | 3.63
P23N | 3.18
P23Y | 2.06
P21Y | 2.02
P21L | 2.67
P21S | 3.5
P21M | 3.2
P21K | 3.55
P21W | 2.12
P21V | 3.27
P21G | 3.02
P21Q | 3.22
P21A | 3.1
P21F | 2.48
P21D | 3.96
P21I | 2.84
P21C | 2.31
P21R | 3.49
P21N | 2.84
P21E | 3.87

Variants of: B2
Experiment: as above
Details: c terminus: a fixed tail appended

Variant | protein stability index
R2H | 1.38
R2M | 3
R2Y | 4.16
R2T | 2.24
R2A | 2.29
R2I | 3.09
R2Q | 1.59
R2P | 2.76
R2N | 1.94
R2S | 2.78
R2F | 3.38
R2E | 1.04
R2V | 2.98
R2C | 2.19
K3T | 1.66
K3A | 2.18
K3N | 2.16
K3G | 3.74
K3I | 2.34
K3C | 2.31
K3E | 2.41
K3M | 2.94
K3F | 2.44
K3V | 3.52
K3P | 2.52
K3S | 1.59

Variant | protein stability index
K3W | 1.86
K3L | 1.85
T1Q | 2.7
T1R | 4.28
T1I | 1.95
T1M | 2.88
T1S | 3.96
T1C | 2.22
T1V | 3.92
T1G | 1.92
T1A | 1.51
T1H | 3.62
T1W | 1.45
T1E | 2.17
L4D | 1.33
L4Q | 2.06
L4I | 3.12
L4P | 2.58
L4G | 1.36
L4K | 2.07
L4A | 1.76
L4C | 2.54
L4N | 1.22
L4R | 1.15
L4H | 2.64

Variants of: B3
Experiment: as above
Details: c terminus: a fixed tail appended

Variant | protein stability index
G24L | 3.53
G24S | 3.99
G24W | 3.88
G24E | 4.82
G24T | 4.41
G24P | 4.01
G24H | 4.17
G24M | 4.17
G24C | 4.01
G24D | 5
G24Q | 4.58
G24R | 4.03
G24F | 3.05
G24A | 4.52
G24V | 4.15
G24Y | 3.56
G24K | 4.76
G24N | 4.49
G21M | 2.22
G21N | 3.43
G21W | 2.6

Variant | protein stability index
G21R | 3.9
G21P | 3.77
G21T | 2.25
G21Q | 2.92
G21V | 3.56
G21Y | 2.13
G21L | 1.83
G21S | 3.37
S22Y | 2.61
S22G | 4.28
S22F | 2.47
S22V | 4
S22E | 4.54
S22Q | 3.88
S22P | 3.33
S22N | 4.09
S22L | 3.03
S22T | 3.51
S22K | 4.03
S22D | 4.55
S22M | 3.85

Variant | protein stability index
S22C | 3.25
S22I | 3.38
N23R | 4.48
N23T | 3.52
N23K | 4.18
N23D | 4.24
N23C | 3.25
N23S | 3.14
N23L | 3.11
N23P | 4.22
N23A | 3.62
N23Q | 4.32
N23V | 3.72
N23W | 3.12
N23I | 3.24
N23G | 3.62
N23M | 3.24
N23E | 4.45
N23Y | 3.3
